Among the data in the supplement of paper PMC10126150 are switch fluorescence ratio values, retold here.

± gives the standard deviation of the averaged measurements.

This data set has as its system ATP. Nature of the data set: switch fluorescence ratio, 500 uM ATP over buffer (Cy3 cluster intensity, sum of 5 cycles each) (fold (ratio)); higher = stronger signal-on switching upon ATP binding; sequences stand for … in TCGTCGGCAGCGTCAGATGTGTATAAGAGACAGTTTTTTTTTTTTTTTTTTTTTTTTT…TC. The note with it: aptamer strand: ATP DNA aptamer (quencher-CACCTGGGGGAGTATTGCGGAGGAAGG + anchor), 100 nM annealed; ATP concentration: 500 uM. In outline:
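Between each of five buffer/ATP cycles, the flow-cell was stripped with NaOH and re-annealed. Each cycle imaged Cy3-labelled switching-strand clusters, annealed to 100 nM quencher-labelled ATP aptamer on a modified Illumina MiSeq flow-cell, first in selection buffer and then after 15 min with 500 uM ATP at 22 °C. The fluorescence ratio is summed target-cycle over summed buffer-cycle Cy3 intensity per cluster, averaged per switch-domain sequence, with clusters outside 100-1000 RFU excluded.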
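Also: ATP exposure 15 min at 22 °C before imaging.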

AAAAAAAACC: the switch fluorescence ratio turned out to be 1.4 ± 0.33. For the sequence AAAAAAAATG, the switch fluorescence ratio was 0.9991 ± 0.0042. In the case of AAAAAAATGG it was 1.01 ± 0.041; in that of AAAAAAATTG, 1 ± 0.017.

Take AAAAAACGTA: the switch fluorescence ratio was determined as 1.08 ± 0.1. For the sequence AAAAAAGAAG, the switch fluorescence ratio was 1.01 ± 0.021. Take AAAAACGTAA: the switch fluorescence ratio came to 1.1 ± 0.061. For the sequence AAAAAGATTG, the switch fluorescence ratio stood at 1.06 ± 0.08.

Turning to AAAAAGGGAA, the switch fluorescence ratio was determined as 0.986 ± 0.02. In the case of AAAAAGGGCC it was 1.009 ± 0.0089; in that of AAAAATAGTG, 1.036 ± 0.0098; in that of AAAAATGGGA, 0.962 ± 0.044. In the case of AAAAATGTCC, the switch fluorescence ratio turned out to be 1.07 ± 0.03. As to AAAAATTATT, the switch fluorescence ratio is 1.006 ± 0.0065.

For AAAAATTCTG, the switch fluorescence ratio was found to be 1.02 ± 0.014. For the sequence AAAAATTTAG, the switch fluorescence ratio was found to be 0.994 ± 0.034. In the case of AAAACAAGGG it was 1.01 ± 0.012; in that of AAAACACTGG, 1.06 ± 0.053; in that of AAAACCGAAA, 1.11 ± 0.1. AAAACCGGGA: the switch fluorescence ratio came to 1.32 ± 0.52. For AAAACCGTGT, the switch fluorescence ratio amounted to 1.05 ± 0.04. Regarding AAAACGGCTC, the switch fluorescence ratio was determined as 1.01 ± 0.0097. With AAAACTTTTA, the switch fluorescence ratio is 1.02 ± 0.04. In the case of AAAAGAAAAG it was 1.01 ± 0.051; in that of AAAAGAACGC, 1.05 ± 0.097; in that of AAAAGAAGCA, 0.948 ± 0.026. Consider AAAAGAATAT, for which the switch fluorescence ratio is 1 ± 0.019.

On to AAAAGAATCG, for which the switch fluorescence ratio was found to be 0.996 ± 0.049.

On to AAAAGAGAAG, for which the switch fluorescence ratio worked out at 1 ± 0.011.

On to AAAAGAGGCA, for which the switch fluorescence ratio amounted to 1.02 ± 0.025. With AAAAGAGGGT, the switch fluorescence ratio is 1.03 ± 0.048.

As for AAAAGAGGTT, the switch fluorescence ratio was determined as 0.9996 ± 0.0072. Regarding AAAAGAGTAT, the switch fluorescence ratio is 1 ± 0.016.

For AAAAGATTTT, the switch fluorescence ratio was determined as 1.06 ± 0.14. In the case of AAAAGCGCGG it was 1.13 ± 0.074; in that of AAAAGCTCCG, 1.05 ± 0.033; in that of AAAAGCTGGG, 1.02 ± 0.051. In the case of AAAAGGGA, the switch fluorescence ratio worked out at 0.982 ± 0.046. In the case of AAAAGGGACG it was 1.05 ± 0.12; in that of AAAAGGGCGG, 1.01 ± 0.023; in that of AAAAGGGCGT, 0.9944 ± 0.0066. On to AAAAGGTTGG, for which the switch fluorescence ratio worked out at 0.997 ± 0.015. Take AAAAGGTTTG: the switch fluorescence ratio was 1.022 ± 0.0081. For the sequence AAAAGTAAAA, the switch fluorescence ratio came out at 1.03 ± 0.061.

AAAAGTCAAT: the switch fluorescence ratio was found to be 1.004 ± 0.0089. As to AAAAGTCAGT, the switch fluorescence ratio was found to be 0.988 ± 0.053. As for AAAAGTCGCT, the switch fluorescence ratio turned out to be 1.03 ± 0.025. Regarding AAAAGTCGGC, the switch fluorescence ratio amounted to 1.04 ± 0.057. AAAAGTTCGT: the switch fluorescence ratio was 0.983 ± 0.024. In the case of AAAAGTTGTA it was 1.01 ± 0.027; in that of AAAATAAAG, 0.947 ± 0.077.

For AAAATAAAGG, the switch fluorescence ratio was determined as 0.976 ± 0.023.

On to AAAATATGCT, for which the switch fluorescence ratio amounted to 1 ± 0.049. As to AAAATCAAAT, the switch fluorescence ratio is 1.02 ± 0.019. In the case of AAAATCAGCG it was 1 ± 0.051; in that of AAAATCCTTG, 1.01 ± 0.04; in that of AAAATCGGTG, 1.01 ± 0.068.

Consider AAAATCTAGT, for which the switch fluorescence ratio amounted to 1.014 ± 0.0081. In the case of AAAATCTGGT it was 1.03 ± 0.015; in that of AAAATGAGCC, 1.036 ± 0.00036.

Regarding AAAATGATCG, the switch fluorescence ratio worked out at 1.006 ± 0.0074. AAAATGGATT: the switch fluorescence ratio turned out to be 0.995 ± 0.055. As for AAAATGGTCA, the switch fluorescence ratio is 1.0102 ± 0.00092.

Consider AAAATGTAGA, for which the switch fluorescence ratio was 0.9919 ± 0.0016. For the sequence AAAATTAAGA, the switch fluorescence ratio worked out at 0.982 ± 0.025. Turning to AAAATTAAGC, the switch fluorescence ratio was 1.01 ± 0.051. For AAAATTCAAG, the switch fluorescence ratio is 0.983 ± 0.016. With AAAATTCAGG, the switch fluorescence ratio came out at 1.02 ± 0.011. In the case of AAAATTCTGC, the switch fluorescence ratio amounted to 1.06 ± 0.022. AAAATTGGGC: the switch fluorescence ratio amounted to 1.08 ± 0.02. As for AAAATTGGGG, the switch fluorescence ratio came to 1.02 ± 0.039. In the case of AAAATTTATG, the switch fluorescence ratio was 1.01 ± 0.038.

As for AAACAGATAA, the switch fluorescence ratio is 1.04 ± 0.084.

Regarding AAACAGCCGG, the switch fluorescence ratio is 1.03 ± 0.0074. As to AAACAGCTCA, the switch fluorescence ratio is 0.994 ± 0.027. As for AAACCAGCCC, the switch fluorescence ratio is 1.21 ± 0.21. AAACCTGGCT: the switch fluorescence ratio worked out at 1.41 ± 0.034.

Take AAACCTGGGT: the switch fluorescence ratio is 1.03 ± 0.025. For AAACGAAATT, the switch fluorescence ratio was determined as 1.03 ± 0.068. In the case of AAACGAAGGA, the switch fluorescence ratio amounted to 1.09 ± 0.069.

Take AAACGCGTTG: the switch fluorescence ratio worked out at 0.9955 ± 0.0011. Turning to AAACGGCGGC, the switch fluorescence ratio turned out to be 1.05 ± 0.041. Turning to AAACGGGGAC, the switch fluorescence ratio came out at 1.07 ± 0.15. For the sequence AAACGGGTGC, the switch fluorescence ratio was 1.27 ± 0.29. In the case of AAACGGTATT, the switch fluorescence ratio was 1.09 ± 0.083.

As for AAACGGTTTC, the switch fluorescence ratio is 0.993 ± 0.036. With AAACGTTAGC, the switch fluorescence ratio is 1.03 ± 0.052.

Consider AAACTAAGAA, for which the switch fluorescence ratio is 1 ± 0.016. Consider AAACTCGGAC, for which the switch fluorescence ratio came out at 1.143 ± 0.0053. In the case of AAACTCTGCG, the switch fluorescence ratio is 1.05 ± 0.026.

For the sequence AAACTGAATA, the switch fluorescence ratio stood at 1.03 ± 0.016. With AAACTGATGC, the switch fluorescence ratio worked out at 1.03 ± 0.052. Consider AAACTGCTCC, for which the switch fluorescence ratio was determined as 1.517 ± 0.012.

AAACTGTAAA: the switch fluorescence ratio is 1.08 ± 0.045. For the sequence AAACTGTATT, the switch fluorescence ratio came to 1.08 ± 0.019. Consider AAACTTAATA, for which the switch fluorescence ratio is 1.14 ± 0.16.

AAACTTGCCC: the switch fluorescence ratio was found to be 1.09 ± 0.012. Regarding AAAGAAAAGG, the switch fluorescence ratio is 0.989 ± 0.0065. With AAAGAAGGTA, the switch fluorescence ratio came out at 1 ± 0.026.

Turning to AAAGAATAAA, the switch fluorescence ratio turned out to be 1.022 ± 0.0089. For the sequence AAAGACCGTG, the switch fluorescence ratio amounted to 1.02 ± 0.033. Take AAAGACGCGC: the switch fluorescence ratio came out at 0.998 ± 0.038. AAAGAGGGTA: the switch fluorescence ratio was 0.963 ± 0.055. Take AAAGAGGGTT: the switch fluorescence ratio amounted to 1.02 ± 0.019. In the case of AAAGATGAAT, the switch fluorescence ratio is 1.04 ± 0.011.

Regarding AAAGATGGGA, the switch fluorescence ratio came to 1.003 ± 0.0081.

For AAAGATGTCA, the switch fluorescence ratio turned out to be 1.005 ± 0.0029. AAAGATTATT: the switch fluorescence ratio was found to be 1 ± 0.021. For AAAGATTTCG, the switch fluorescence ratio was found to be 0.971 ± 0.027. Turning to AAAGCCACGC, the switch fluorescence ratio came out at 1.11 ± 0.032. As to AAAGCGCGCT, the switch fluorescence ratio turned out to be 1 ± 0.07.

Consider AAAGCGGGGC, for which the switch fluorescence ratio is 1.02 ± 0.015.

On to AAAGCTCTGT, for which the switch fluorescence ratio was found to be 0.992 ± 0.012.

For the sequence AAAGCTGGAG, the switch fluorescence ratio was found to be 1.03 ± 0.021. In the case of AAAGGAAGAA, the switch fluorescence ratio turned out to be 1.013 ± 0.0073. On to AAAGGACGTG, for which the switch fluorescence ratio came out at 0.9356 ± 0.0076. In the case of AAAGGAGGAG, the switch fluorescence ratio was found to be 0.991 ± 0.038.

Take AAAGGCACCC: the switch fluorescence ratio came out at 1.05 ± 0.019. In the case of AAAGGCCATG it was 1.02 ± 0.0045; in that of AAAGGCCCGA, 1.0084 ± 0.00039.
